{"source": "patent EP4545091A1", "about": "(priority 2023, dated 2025)", "molecular_target": "TMPRSS2 on cells (UniProt O15393)", "assay": "cell-based or functional assay"}
{"substance": "Trypstatin (AMBP 284-344) (peptide)", "values": [{"measurement": "IC50, MERS-CoV spike pseudoparticle entry into CaCo-2 cells (luciferase)", "result": 0.078, "unit": "µM"}, {"measurement": "IC50, SARS-CoV spike pseudoparticle entry into CaCo-2 cells (luciferase)", "result": 0.031, "unit": "µM"}]}
